These results are taken from patent US20240101670A1.

The assay deals with Human C1q (human) (UniProt P02745). Put plainly: ELISA: antibody coated on the plate at the concentration shown, human C1q added at 10 ug/mL, detection with sheep anti-human C1q-HRP, OD450. On the technique in general: An ELISA detects its analyte on a solid surface through an enzyme-linked reagent.
Sequence of Human C1q (human) (P02745 23-245 limits assumed, chain 1 of 3): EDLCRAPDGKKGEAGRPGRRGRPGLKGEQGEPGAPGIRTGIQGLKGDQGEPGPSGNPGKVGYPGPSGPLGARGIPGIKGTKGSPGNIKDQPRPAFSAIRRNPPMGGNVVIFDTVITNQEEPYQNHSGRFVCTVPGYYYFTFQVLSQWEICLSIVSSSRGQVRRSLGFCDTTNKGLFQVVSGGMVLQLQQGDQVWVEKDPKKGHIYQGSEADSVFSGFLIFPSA
Sequence of Human C1q (human) (P02746 28-253 limits assumed, chain 2 of 3, further chain): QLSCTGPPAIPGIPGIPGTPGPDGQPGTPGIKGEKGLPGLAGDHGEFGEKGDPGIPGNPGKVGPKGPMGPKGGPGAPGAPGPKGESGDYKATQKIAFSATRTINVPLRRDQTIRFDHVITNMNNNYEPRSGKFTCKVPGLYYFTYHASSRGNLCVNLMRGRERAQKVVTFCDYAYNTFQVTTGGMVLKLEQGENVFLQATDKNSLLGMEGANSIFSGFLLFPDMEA
Sequence of Human C1q (human) (P02747 29-245 limits assumed, chain 3 of 3, further chain): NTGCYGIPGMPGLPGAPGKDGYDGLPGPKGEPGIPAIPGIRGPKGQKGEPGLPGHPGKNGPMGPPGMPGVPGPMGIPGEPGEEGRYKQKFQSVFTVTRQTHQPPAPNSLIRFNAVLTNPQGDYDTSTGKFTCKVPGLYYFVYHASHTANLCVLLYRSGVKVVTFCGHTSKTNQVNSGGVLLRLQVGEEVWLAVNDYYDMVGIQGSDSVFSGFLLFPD

For human IgG1 isotype control antibody, the half-maximal effective concentration (EC50 (read off the curve)) (in general, the concentration at which the effect is half-maximal) is 2 µg/mL.
